Measured values taken from US20230143604A1, “QW DOSING OF GIP RECEPTOR AGONIST PEPTIDE COMPOUNDS AND USES THEREOF” (TAKEDA PHARMACEUTICAL COMPANY LIMITED, priority 2020, published 2023).
Starred links: 1 amine or outer side, 2 acyl side, 3 side chain; linkers in the order of their positions; H or OH if unused. Non-standard residues stand in square brackets, D forms with d. Residues, ends and D or L forms follow the SMILES beside them. Groups on a side chain read outwards from the residue. No end group written: not given here. *: point of attachment. C18 diacid = O=C(O)CCCCCCCCCCCCCCCCC(=O)*; C17 diacid = O=C(O)CCCCCCCCCCCCCCCC(=O)*; γGlu = O=C(O)[C@H](CCC(=O)[*:2])N[*:1]; NMeY = CN[C@@H](Cc1ccc(O)cc1)C(=O)O; AEEA = NCCOCCOCC(=O)O; Aib = CC(C)(N)C(=O)O

T1: full-length human GIPR with an N-terminal FLAG tag, overexpressed on HEK-293T cells (human, UniProt P48546 22-466)
T1 sequence (looked up): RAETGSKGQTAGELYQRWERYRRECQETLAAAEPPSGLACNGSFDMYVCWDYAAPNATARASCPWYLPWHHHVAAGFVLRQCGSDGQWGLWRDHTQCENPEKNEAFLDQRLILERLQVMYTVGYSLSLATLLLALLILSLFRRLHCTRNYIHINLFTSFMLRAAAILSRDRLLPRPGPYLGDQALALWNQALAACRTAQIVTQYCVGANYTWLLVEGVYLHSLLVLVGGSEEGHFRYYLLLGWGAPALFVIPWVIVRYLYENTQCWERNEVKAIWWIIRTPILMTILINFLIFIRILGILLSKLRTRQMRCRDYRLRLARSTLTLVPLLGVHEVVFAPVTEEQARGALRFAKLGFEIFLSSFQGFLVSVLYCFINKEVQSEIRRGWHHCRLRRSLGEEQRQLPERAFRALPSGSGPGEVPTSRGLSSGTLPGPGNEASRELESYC

T2: full-length human GIPR with an N-terminal FLAG tag (human, UniProt P48546 22-466)
T2 sequence (looked up): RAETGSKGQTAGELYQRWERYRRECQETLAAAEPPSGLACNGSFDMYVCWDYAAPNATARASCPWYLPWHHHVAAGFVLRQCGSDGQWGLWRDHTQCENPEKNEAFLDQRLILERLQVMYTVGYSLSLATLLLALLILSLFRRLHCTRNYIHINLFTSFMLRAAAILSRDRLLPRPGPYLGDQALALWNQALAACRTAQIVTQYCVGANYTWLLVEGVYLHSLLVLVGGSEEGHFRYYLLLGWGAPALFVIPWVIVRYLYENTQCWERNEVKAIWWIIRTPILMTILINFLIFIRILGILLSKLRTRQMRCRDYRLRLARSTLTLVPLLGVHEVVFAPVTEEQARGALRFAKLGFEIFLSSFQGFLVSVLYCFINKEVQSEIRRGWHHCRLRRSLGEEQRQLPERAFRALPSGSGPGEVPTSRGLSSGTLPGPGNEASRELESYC


What was measured:
[1] = Serum half-life and percentage remaining at 48 hours; assay type: in vitro ADME; details: both sexes, pH 7.4, human plasma, 500 nM peptide, 37° C.
Experimental: Human plasma (mixed gender: sodium heparin is used as anti-coagulant; pre-adjusted to pH 7.4—NB alternative species may be used) is spiked with each test peptide (500 nM) and incubated·cn=3) at 37° C. for 48 hours in a 5% CO2 environment. Aliquots are taken at 0. 1, 2, 4, 7, 24 and […] and pH adjusted to pH 3 with 20% formic acid prior to analysis. Appropriate positive control compounds will be incubated in parallel, in addition to a no plasma control, sampled at 0 and 8 hours. All samples will be treated with ice-cold acetonitrile/methanol (4:1 (v/v)) containing internal standard prior to centrifugation at 2000 g and 4° C. for 10 minutes and subjected to LC-MS/MS analysis.
The samples are analyzed by LC-MS/MS using a 6500 (or equivalent) triple quadrupole mass spectrometer (AB Sciex) coupled to an appropriate Liquid Chromatography (LC) system. Protein binding and stability values are determined via peak area ratios using multiple reaction monitoring (MRM) parameters following compound optimisation. Multiple reaction monitoring (MRM) is a highly sensitive method of targeted mass spectrometry (MS) that can be used to selectively detect and quantify peptides based on the screening of specified precursor peptide-to-fragment ion transitions.

[2] = Solubility in phosphate buffer pH 7.4
How it was run: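 Solubility at pH 7.4 determined by stepwise addition of 200 mM phosphate buffer in 100 μL increments to 3 mg peptide, mixing briefly each time, until no insoluble material remained, then measured by liquid chromatography.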

dog plasma proteins = assay: plasma protein binding, ultracentrifugation, LC-MS/MS
human plasma proteins = assay: as above
[3] = target: T1, full-length human GIPR with an …; assay: cell-based or functional assay
[4] = target: full-length human GLP-1R with an N-terminal FLAG tag, overexpressed on HEK-293T cells (human, UniProt P43220 24-463); assay: cell-based or functional assay
[5] = target: T2, full-length human GIPR with an …; assay: cell-based or functional assay
[6] = target: full-length human GLP-1R with an N-terminal FLAG tag (human, UniProt P43220 24-463); assay: cell-based or functional assay

Molecule | half-life at 500 nM ([1]; read-out: Serum t1/2 (converted)) | remaining at 48 h, 500 nM ([1]; plasma (sodium heparin), 48 hr) | solubility ([2]; pH 7.4, aqueous buffer, pH 7.4 Phosphate Buffer - Solubility, 200 mM Phosphate buffer pH 7.4) | solubility ([2]; pH 7.4, solubility in phosphate buffer at pH 7.4, 200 mM phosphate buffer pH 7.4) | Dog PPB (FUplasma), fraction unbound in plasma (fraction unbound) (dog plasma proteins) | Human PPB (FUplasma), fraction unbound in plasma (fraction unbound) (human plasma proteins) | Human GIPR cAMP EC50, HEK293T [3] | Human GLP1R cAMP EC50, HEK293T [4] | Human GIPR cAMP EC50, HEK293T [5] | Human GLP1R cAMP EC50, HEK293T [6]
CC[C@H](C)[C@H](NC(=O)[C@H](CO)NC(=O)[C@H](Cc1ccc(O)cc1)NC(=O)[C@H](CC(=O)O)NC(=O)[C@H](CO)NC(=O)[C@@H](NC(=O)[C@H](Cc1ccccc1)NC(=O)[C@@H](NC(=O)CNC(=O)[C@H](CCC(=O)O)NC(=O)C(C)(C)NC(=O)[C@H](Cc1ccc(O)cc1)NC)[C@@H](C)O)[C@@H](C)CC)C(=O)N[C@@H](C)C(=O)N[C@@H](CC(C)C)C(=O)N[C@@H](CC(=O)O)C(=O)N[C@@H](CCCNC(=N)N)C(=O)NC(C)(C)C(=O)N[C@@H](Cc1c[nH]cn1)C(=O)N[C@@H](CCC(N)=O)C(=O)NC(C)(C)C(=O)N[C@@H](CC(N)=O)C(=O)N[C@@H](Cc1ccccc1)C(=O)N[C@H](C(=O)N[C@@H](CC(N)=O)C(=O)N[C@@H](Cc1c[nH]c2ccccc12)C(=O)N[C@@H](CC(C)C)C(=O)N[C@@H](CC(C)C)C(=O)N[C@@H](C)C(=O)N[C@@H](CCC(N)=O)C(=O)N[C@@H](CCCCNC(=O)COCCOCCNC(=O)COCCOCCNC(=O)CC[C@H](NC(=O)CCCCCCCCCCCCCCCCC(=O)O)C(=O)O)C(=O)N1CCC[C@H]1C(=O)N[C@@H](CO)C(=O)N[C@@H](CO)C(=O)NCC(=O)N[C@@H](C)C(=O)N1CCC[C@H]1C(=O)N1CCC[C@H]1C(=O)N1CCC[C@H]1C(=O)N[C@@H](CO)C(N)=O)C(C)C [Compound 1] (H-[NMeY][Aib]EGTFISDYSIALDR[Aib]HQ[Aib]NFVNWLLAQK([AEEA-AEEA-γGlu-C18 diacid])PSSGAPPPS-NH2) | > 48 h | 100% | ≥ 30 mg/mL | ≥ 15 mg/mL |  |  |  |  |  | 
[NMeY][Aib]EGTFISDYSIALDR[Aib]AQ[Aib]K([AEEA-AEEA-γGlu-γGlu-C18 diacid])FVNWLLAQKG-OH [Compound No. 41] |  |  |  |  | 0.0007 | < 0.002 |  |  |  | 
[NMeY][Aib]EGTFISDYSIALDR[Aib]K([AEEA-AEEA-γGlu-γGlu-C18 diacid])Q[Aib]NFVNWLLAQSPSSGAPPPS-NH2 [Compound No. 293] |  |  |  |  | < 0.002 | < 0.002 | 0.0004 nM | 129 nM |  | 
[NMeY][Aib]EGTFISDYSIALDR[Aib]AQ[Aib]K([2OEGgEgE-C17 diacid])FVNWLLAQR-NH2 [Compound No. 8] |  |  |  |  | 0.0016 | 0.0009 |  |  | 0.0003 nM | 41.4 nM
[NMeY][Aib]EGTFISDYSIALDR[Aib]AQ[Aib]K([AEEA-AEEA-γGlu-γGlu-C17 diacid])FVNWLLAQRG-OH [Compound No. 36] |  |  |  |  | 0.0034 | < 0.002 |  |  | 0.0007 nM | 87.1 nM
[NMeY][Aib]EGTFISDYSIALDR[Aib]AQ[Aib]K(2OEGgEgE‑C20 diacid)FVNWLLAQKG-OH [Compound No. 39] |  |  |  |  | 0.0015 | 0.0112 |  |  | 0.0017 nM | 13.2 nM
[NMeY][Aib]EGTFISDYSI[Aib]LDR[Aib]AQ[Aib]K([AEEA-AEEA-γGlu-γGlu-C17 diacid])FVNWLLAQRPSSGAPPPS-NH2 [Compound No. 13] |  |  |  |  | < 0.002 | < 0.002 |  |  | 0.0004 nM | 49 nM
[NMeY][Aib]EGTFISDYSIALDR[Aib]K([AEEA-AEEA-γGlu-γGlu-C17 diacid])Q[Aib]NFVNWLLAQSPSSGAPPPS-NH2 [Compound No. 11] |  |  |  |  | < 0.0024 | 0.0038 |  |  | 0.0003 nM | 1000 nM
[NMeY][Aib]EGTFISDYSI[Aib]LDR[Aib]AQ[Aib]K([2OEGgEgE-C18 diacid])FVNWLLAQRG-OH [Compound No. 72] |  |  |  |  | 0.0062 | 0.0036 |  |  | 0.0005 nM | 43.2 nM
[NMeY][Aib]EGTFISDYSI[Aib]LDR[Aib]AQ[Aib]NFVNWLLAQK([AEEA-AEEA-γGlu-γGlu-C18 diacid])PSSGAPPPS-NH2 [Compound No. 27] |  |  |  |  | < 0.002 | 0.0013 |  |  | 0.0004 nM | 87.1 nM
[NMeY][Aib]EGTFISDYSIALDR[Aib]HQ[Aib]NFVNWLLAK([AEEA-AEEA-γGlu-γGlu-C18 diacid])R-NH2 [Compound No. 19] |  |  |  |  | 0.0005 | 0.0011 |  |  |  | 
[NMeY][Aib]EGTFISDYSI[Aib]LDRK([AEEA-AEEA-γGlu-γGlu-C17 diacid])AQ[Aib]NFVNWLLAQRPSSGAPPPS-NH2 [Compound No. 15] |  |  |  |  | 0.0021 | 0.0017 |  |  | 0.0003 nM | 35.9 nM
[NMeY][Aib]EGTFISDYSIALDR[Aib]AQ[Aib]K([AEEA-AEEA-γGlu-γGlu-C18 diacid])FVNWLLAQRG-OH [Compound No. 37] |  |  |  |  | 0.0012 | 0.001 |  |  | 0.0005 nM | 44.7 nM
[NMeY][Aib]EGTFISDYSI[Aib]LDR[Aib]AQ[Aib]NFVNWLLAQK([AEEA-AEEA-γGlu-γGlu-C17 diacid])PSSGAPPPS-NH2 [Compound No. 16] |  |  |  |  | < 0.00116 | < 0.0012 |  |  | 0.0004 nM | 35.1 nM
